According to patent publication US20240116985A1 (published 2024):
Starred links: 1 amine or outer side, 2 acyl side, 3 side chain; linkers in the order of their positions; H or OH if unused. Positions of bridges follow the written chain, without caps; N, C: chain ends. Non-standard residues stand in square brackets, D forms with d. Primed or numbered codes have the meaning given here. PyrS2″ = (S)-3-amino-1-((pent-4-en-1-yloxy)carbonyl)pyrrolidine-3-carboxylic acid (stapling residue), C=CCCCOC(=O)N1CC[C@@](N[*:1])(C(=O)[*:2])C1; B5(4) = 2,2-bis(4-pentenyl)glycine = 2-amino-2-(pent-4-en-1-yl)hept-6-enoic acid (stitching residue), C=CCCCC(CCCC=C)(N[*:1])C(=O)[*:2]; B5(5) = 2,2-bis(4-pentenyl)glycine, 2-amino-2-(pent-4-en-1-yl)hept-6-enoic acid (stitching residue), C=CCCCC(CCCC=C)(N[*:1])C(=O)[*:2]; TfeGA = (S)-2-amino-3-((carboxymethyl)(2,2,2-trifluoroethyl)amino)propanoic acid, O=C([C@H](CN(CC(=O)[*:3])CC(F)(F)F)N[*:1])[*:2]; PyrS2 = (S)-3-amino-1-((pent-4-en-1-yloxy)carbonyl)pyrrolidine-3-carboxylic acid, C=CCCCOC(=O)N1CC[C@@](N[*:1])(C(=O)[*:2])C1; B5(19) = 2-amino-2-(pent-4-en-1-yl)hept-6-enoic acid (bis(4-pentenyl)glycine), C=CCCCC(CCCC=C)(N[*:1])C(=O)[*:2]; B5(3) = 2,2-bis(4-pentenyl)glycine (stitching residue), C=CCCCC(CCCC=C)(N[*:1])C(=O)[*:2]; Phe(F5) = N[C@@H](Cc1c(F)c(F)c(F)c(F)c1F)C(=O)O; 2Nal = N[C@@H](Cc1ccc2ccccc2c1)C(=O)O; hLeu(5-Me) = CC(C)(C)CC[C@H](N)C(=O)O; Bta = N[C@@H](Cc1csc2ccccc12)C(=O)O; hTyr = N[C@@H](CCc1ccc(O)cc1)C(=O)O; αAllylPro = C=CC[C@@]1(C(=O)O)CCCN1; tBuAla = CC(C)(C)C[C@H](N)C(=O)O; 3Thi = N[C@@H](Cc1ccsc1)C(=O)O; Cha = N[C@@H](CC1CCCCC1)C(=O)O; S8 = C=CCCCCCC[C@](C)(N)C(=O)O; PyrS2(4) = not defined here; TfeGA″ = not defined here; hSer = N[C@@H](CCO)C(=O)O; Nle = CCCC[C@H](N)C(=O)O

T1: B-cat-Halo (UniProt P35222 2-781)
T1 sequence (looked up): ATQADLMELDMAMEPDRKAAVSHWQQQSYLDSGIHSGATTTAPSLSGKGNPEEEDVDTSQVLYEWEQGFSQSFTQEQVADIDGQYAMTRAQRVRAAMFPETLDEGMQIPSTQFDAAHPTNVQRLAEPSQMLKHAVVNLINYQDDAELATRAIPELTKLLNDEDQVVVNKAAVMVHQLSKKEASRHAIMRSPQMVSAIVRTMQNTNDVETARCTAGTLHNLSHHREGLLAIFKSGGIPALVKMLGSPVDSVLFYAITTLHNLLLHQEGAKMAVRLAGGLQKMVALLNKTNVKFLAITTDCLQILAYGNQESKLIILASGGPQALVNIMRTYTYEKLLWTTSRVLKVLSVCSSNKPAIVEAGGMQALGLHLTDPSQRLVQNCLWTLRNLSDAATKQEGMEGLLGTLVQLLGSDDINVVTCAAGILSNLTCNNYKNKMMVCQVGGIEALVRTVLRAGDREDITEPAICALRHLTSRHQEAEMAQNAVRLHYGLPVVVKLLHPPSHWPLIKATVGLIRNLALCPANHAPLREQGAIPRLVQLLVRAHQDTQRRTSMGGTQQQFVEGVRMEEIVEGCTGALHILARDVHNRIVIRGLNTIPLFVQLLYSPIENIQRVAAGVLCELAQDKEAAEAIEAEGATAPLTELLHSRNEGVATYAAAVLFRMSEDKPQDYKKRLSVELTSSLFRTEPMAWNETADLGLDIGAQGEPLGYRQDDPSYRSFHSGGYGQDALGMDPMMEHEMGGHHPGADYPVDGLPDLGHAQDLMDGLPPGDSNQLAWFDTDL

T2: full-length beta-Catenin (Uniprot ID P35222) (Homo sapiens (Human), UniProt P35222 2-781)
T2 construct: the AlphaScreen assay uses a Histidine (Nickel Chelate) detection kit, so a His tag is likely there; also called B-Catenin; bCat
T2 sequence: T1 sequence (looked up)

B1: I-1786 (peptide)
peptide: Ac-[αAllylPro]D[tBuAla][B5(19)]D[hTyr]AAF[hSer][PyrS2][3Thi][Bta]Q-NH2
modifications: staple 1-4, 4-11
B2: I-1788 (peptide)
peptide: Ac-[αAllylPro]D[tBuAla][B5(19)]DWAAFN[PyrS2][3Thi][Bta]Q-NH2
modifications: staple 1-4, 4-11
B3: I-1790 (peptide)
peptide: Ac-[αAllylPro]D[tBuAla][B5(19)]D[Phe(F5)]AAFN[PyrS2][3Thi][Bta]Q-NH2
modifications: staple 1-4, 4-11
B4: I-1772 (peptide)
peptide: Ac-[αAllylPro]D[hLeu(5-Me)][B5(5)]D[TfeGA]AAFL[PyrS2″][3Thi][Bta]Q-NH2
modifications: staple 1-4, 4-11
B5: I-1783 (peptide)
peptide: Ac-[αAllylPro]D[tBuAla][B5(19)]DYAAF[hSer][PyrS2][3Thi][Bta]Q-NH2
modifications: staple 1-4, 4-11
B6: I-1794 (peptide)
peptide: Ac-[αAllylPro]D[tBuAla][B5(3)]DHAAF[hSer][PyrS2″][3Thi][Bta]Q-NH2
modifications: staple 1-4, 4-11; not fully specified; printed as Ac-PL3-Asp-Npg-B5-Asp-His-Ala-Ala-Phe-Hse-PyrS2-3Thi-BztA-Gln-NH2
B7: I-1774 (peptide)
peptide: Ac-[αAllylPro]D[tBuAla][B5(5)]D[TfeGA″]AAF[Cha][PyrS2(4)][3Thi][Bta]Q-NH2
modifications: staple 1-4, 4-11; not fully specified; reading uncertain
B8: I-1776 (peptide)
peptide: Ac-[αAllylPro]D[tBuAla][B5(19)]D[TfeGA]AAF[Nle][PyrS2][3Thi][Bta]Q-NH2
modifications: staple 1-4, 4-11
B9: I-1791 (peptide)
peptide: Ac-[αAllylPro]D[tBuAla][B5(19)]D[Phe(F5)]AAF[hSer][PyrS2][3Thi][Bta]Q-NH2
modifications: staple 1-4, 4-11
B10: I-1773 (peptide)
peptide: Ac-[αAllylPro]D[tBuAla][B5(5)]D[TfeGA]AAF[tBuAla][PyrS2″][3Thi][Bta]Q-NH2
modifications: staple 1-4, 4-11
B11: I-1796 (peptide)
peptide: Ac-[αAllylPro]D[tBuAla][B5(3)]DHAAFL[PyrS2″][3Thi][Bta]Q-NH2
modifications: staple 1-4, 4-11; not fully specified; printed as Ac-PL3-Asp-Npg-B5-Asp-His-Ala-Ala-Phe-Leu-PyrS2-3Thi-BztA-Gln-NH2
B12: I-1785 (peptide)
peptide: Ac-[αAllylPro]D[tBuAla][B5(19)]D[hTyr]AAFN[PyrS2][3Thi][Bta]Q-NH2
modifications: staple 1-4, 4-11
B13: I-1793 (peptide)
peptide: Ac-[αAllylPro]D[tBuAla][B5(19)]DHAAF[hSer][PyrS2][3Thi][Bta]Q-NH2
modifications: staple 1-4, 4-11; not fully specified; printed as Ac-PL3-Asp-Npg-B5-Asp-His-Ala-Ala-Phe-Hse-PyrS2-3Thi-BztA-Gln-NH2
B14: I-1795 (peptide)
peptide: Ac-[αAllylPro]D[tBuAla][B5(3)]DHAAFL[PyrS2(4)][3Thi][Bta]Q-NH2
modifications: staple 1-4, 4-11; not fully specified; reading uncertain
B15: I-1777 (peptide)
peptide: Ac-[αAllylPro]D[Nle][B5(19)]D[TfeGA]AAFL[PyrS2][3Thi][Bta]Q-NH2
modifications: staple 1-4, 4-11
B16: I-140 (peptide)
peptide: Ac-[αAllylPro]DA[B5(19)]DEAAFV[S8]F[2Nal]Q-NH2
modifications: staple 1-4, 4-11
notes: stapled peptide composition
B17: I-135 (peptide)
peptide: Ac-[αAllylPro]DA[B5(4)]DEAAFV[S8]FWA-NH2
modifications: staple 1-4, 4-11
notes: stapled (stitched) peptide composition

The binders below were run against T1, B-cat-Halo (assay: cell-based or functional assay).

| NanoBRET Abs IC50 | Binder |
| --- | --- |
| > 20 µM | B1 |
| 33.9 µM | B2 |
| 34.4 µM | B3 |
| 6.8 µM | B4 |
| > 20 µM | B5 |
| 37.7 µM | B6 |
| 8.9 µM | B7 |
| 10.5 µM | B8 |
| > 20 µM | B9 |
| 8.6 µM | B10 |
| > 20 µM | B11 |
| 42.3 µM | B12 |
| > 20 µM | B13 |
| 22.8 µM | B14 |
| 8.7 µM | B15 |

What follows are binders tested against T2, full-length beta-Catenin (Uniprot ID …) (assay: AlphaScreen competition; full-length beta-catenin with biotin-TCF4(10-53) probe as competitor).
Protocol: Equal volume of the titrated peptide was added to the plate and incubated for 15 minutes at 20° C. Then 4 uL of donor and 4 uL acceptor beads at 10 ug/mL were added to the plate, for a 16 uL reaction pool and protected from light for 60 minutes at 20° C. prior to read. Reads were performed on a CLARIOstar plate reader (BMG Labtech) in duplicate, and data were fitted to a 1:1 binding model with hill slope using an in-house script. All provided concentrations are final concentrations.

| EC50 | Binder |
| --- | --- |
| 0.934 µM | B16 |
| 0.279 µM | B17 |

What follows are binders tested against T2, full-length beta-Catenin (Uniprot ID …) (assay: fluorescence polarization competition; full-length beta-catenin with 5FAM-TCF4(10-53) probe as competitor).
Protocol: The plate was incubated protected from light for 60 minutes at 20° C. prior to read. Reads were performed on a CLARIOstar plate reader (BMG Labtech) in duplicate, and data were fitted to a 1:1 binding model with hill slope using an in-house script. All provided concentrations are final concentrations.

| EC50 | Binder |
| --- | --- |
| 2.27 µM | B16 |
| 1.87 µM | B17 |
